Results taken from PMC10020564, “Distinct inter-domain interactions of dimeric versus monomeric α-catenin link cell junctions to filaments” (Communications Biology, 2023).

B1: human α-catenin Δ1–81 (domain or fragment, UniProt P35221 82-906, looked up)
chain: ESQFLKEELVAAVEDVRKQGDLMKAAAGEFADDPCSSVKRGNMVRAARALLSAVTRLLILADMADVYKLLVQLKVVEDGILKLRNAGNEQDLGIQYKALKPEVDKLNIMAAKRQQELKDVGHRDQMAAARGILQKNVPILYTASQACLQHPDVAAYKANRDLIYKQLQQAVTGISNAAQATASDDASQHQGGGGGELAYALNNFDKQIIVDPLSFSEERFRPSLEERLESIISGAALMADSSCTRDDRRERIVAECNAVRQALQDLLSEYMGNAGRKERSDALNSAIDKMTKKTRDLRRQLRKAVMDHVSDSFLETNVPLLVLIEAAKNGNEKEVKEYAQVFREHANKLIEVANLACSISNNEEGVKLVRMSASQLEALCPQVINAALALAAKPQSKLAQENMDLFKEQWEKQVRVLTDAVDDITSIDDFLAVSENHILEDVNKCVIALQEKDVDGLDRTAGAIRGRAARVIHVVTSEMDNYEPGVYTEKVLEATKLLSNTVMPRFTEQVEAAVEALSSDPAQPMDENEFIDASRLVYDGIRDIRKAVLMIRTPEELDDSDFETEDFDVRSRTSVQTEDDQLIAGQSARAIMAQLPQEQKAKIAEQVASFQEEKSKLDAEVSKWDDSGNDIIVLAKQMCMIMMEMTDFTRGKGPLKNTSDVISAAKKIAEAGSRMDKLGRTIADHCPDSACKQDLLAYLQRIALYCHQLNICSKVKAEVQNLGGELVVSGVDSAMSLIQAAKNLMNAVVQTVKASYVASTKYQKSQGMASLNLPAVSWKMKAPEKKPLVKREKQDETQTKIKRASQKKHVNPVQALSEFKAMDSI
notes: also called human dimeric α-catenin Δ1–81; human monomeric α-catenin Δ1–81; source: E. coli BL21(DE3) (said of all α-catenin constructs)
B2: human α-catenin (residues 22–906) (domain or fragment, UniProt P35221 22-906, looked up)
chain: TLAVERLLEPLVTQVTTLVNTNSKGPSNKKRGRSKKAHVLAASVEQATENFLEKGDKIAKESQFLKEELVAAVEDVRKQGDLMKAAAGEFADDPCSSVKRGNMVRAARALLSAVTRLLILADMADVYKLLVQLKVVEDGILKLRNAGNEQDLGIQYKALKPEVDKLNIMAAKRQQELKDVGHRDQMAAARGILQKNVPILYTASQACLQHPDVAAYKANRDLIYKQLQQAVTGISNAAQATASDDASQHQGGGGGELAYALNNFDKQIIVDPLSFSEERFRPSLEERLESIISGAALMADSSCTRDDRRERIVAECNAVRQALQDLLSEYMGNAGRKERSDALNSAIDKMTKKTRDLRRQLRKAVMDHVSDSFLETNVPLLVLIEAAKNGNEKEVKEYAQVFREHANKLIEVANLACSISNNEEGVKLVRMSASQLEALCPQVINAALALAAKPQSKLAQENMDLFKEQWEKQVRVLTDAVDDITSIDDFLAVSENHILEDVNKCVIALQEKDVDGLDRTAGAIRGRAARVIHVVTSEMDNYEPGVYTEKVLEATKLLSNTVMPRFTEQVEAAVEALSSDPAQPMDENEFIDASRLVYDGIRDIRKAVLMIRTPEELDDSDFETEDFDVRSRTSVQTEDDQLIAGQSARAIMAQLPQEQKAKIAEQVASFQEEKSKLDAEVSKWDDSGNDIIVLAKQMCMIMMEMTDFTRGKGPLKNTSDVISAAKKIAEAGSRMDKLGRTIADHCPDSACKQDLLAYLQRIALYCHQLNICSKVKAEVQNLGGELVVSGVDSAMSLIQAAKNLMNAVVQTVKASYVASTKYQKSQGMASLNLPAVSWKMKAPEKKPLVKREKQDETQTKIKRASQKKHVNPVQALSEFKAMDSI
notes: Modified pET28 vector; By the printed forward primer the residues GPHM would remain before T22 after PreScission cleavage (surmise); The dimer was used for the complex with F-actin; in the map only residues 710–871 are ordered; also called Δ1–21 α-catenin; human dimeric α-catenin Δ1–21; source: E. coli BL21(DE3), purified (HisTrap, PreScission cleavage, reverse HisTrap, Superdex S200); not shown: …
B3: full-length human α-catenin (residues 1–906) (natural protein, UniProt P35221 1-906, looked up)
chain: MTAVHAGNINFKWDPKSLEIRTLAVERLLEPLVTQVTTLVNTNSKGPSNKKRGRSKKAHVLAASVEQATENFLEKGDKIAKESQFLKEELVAAVEDVRKQGDLMKAAAGEFADDPCSSVKRGNMVRAARALLSAVTRLLILADMADVYKLLVQLKVVEDGILKLRNAGNEQDLGIQYKALKPEVDKLNIMAAKRQQELKDVGHRDQMAAARGILQKNVPILYTASQACLQHPDVAAYKANRDLIYKQLQQAVTGISNAAQATASDDASQHQGGGGGELAYALNNFDKQIIVDPLSFSEERFRPSLEERLESIISGAALMADSSCTRDDRRERIVAECNAVRQALQDLLSEYMGNAGRKERSDALNSAIDKMTKKTRDLRRQLRKAVMDHVSDSFLETNVPLLVLIEAAKNGNEKEVKEYAQVFREHANKLIEVANLACSISNNEEGVKLVRMSASQLEALCPQVINAALALAAKPQSKLAQENMDLFKEQWEKQVRVLTDAVDDITSIDDFLAVSENHILEDVNKCVIALQEKDVDGLDRTAGAIRGRAARVIHVVTSEMDNYEPGVYTEKVLEATKLLSNTVMPRFTEQVEAAVEALSSDPAQPMDENEFIDASRLVYDGIRDIRKAVLMIRTPEELDDSDFETEDFDVRSRTSVQTEDDQLIAGQSARAIMAQLPQEQKAKIAEQVASFQEEKSKLDAEVSKWDDSGNDIIVLAKQMCMIMMEMTDFTRGKGPLKNTSDVISAAKKIAEAGSRMDKLGRTIADHCPDSACKQDLLAYLQRIALYCHQLNICSKVKAEVQNLGGELVVSGVDSAMSLIQAAKNLMNAVVQTVKASYVASTKYQKSQGMASLNLPAVSWKMKAPEKKPLVKREKQDETQTKIKRASQKKHVNPVQALSEFKAMDSI
notes: Cloned into pGEX-6P-1; residues of the PreScission site may remain at the N-terminus after cleavage; The same protein elutes as a monomer peak and a dimer peak, which were pooled separately; also called human monomeric α-catenin; human dimeric α-catenin; source: E. coli BL21(DE3), purified (GST Sepharose, PreScission cleavage, Superdex S200; monomer and dimer peaks pooled separately); not shown: …

Target: the molecule itself
Experiment: SEC-MALS; separately pooled dimer peak of a size exclusion run; Superdex S200 10/300 GL, 20 mM Tris-HCl pH 8, 150 mM NaCl, 0.2 mM TCEP, 0.5 ml/min

Stoichiometry N, 2:
B1, B2, B3
